Assay results reported in US20230391852A1 (US Dept. of Health and Human Services, published 2023).
Numbering of substitutions follows the chain as printed.

B1: NCI-CoV-4C6 (VHH)
VHH: QVQLVESGGGSVQAGESLRLSCAVSGISSSTHYMAWFRQLPGKEREGLANIYTPAKVSLYANDVKGRFTISQDVTKNTVYLQMNSLKPEDTAMYYCAARRNAVCNAGSPLDFEFSYWGQGTQVTVSS
B2: NCI-CoV-8A1 (VHH)
VHH: QVQLVESGGGSVQAGGSLRLSCAASGFTFSSYFMTWVRQAPGKGLEWVSTINSDGSNTYYADSVKGRFTISRDNAKNTLYLQMNSLKPEDTAMYYCNFRRMIGTSNLNYWGQGTQVTVSS
B3: NCI-CoV-1D7 (VHH)
VHH: QVKLEESGGGLVQPGGSLKLSCTASGFTFSSYNMSWVRQAPGKGLKWVSMIRSDGSNTYYLDSVKGRFTISRDNAKNTVYLQMNSLEPGDTAVYYCVAGRHATYWGQGTQVTVSS
B4: NCI-CoV-2F5 (VHH)
VHH: B3 VHH with K3Q, E5V
B5: NCI-CoV-8B6 (VHH)
VHH: AVQLVDSGGGSVQAGGSLRLSCAASGITYSTNCMGWFRQAPGKGLEWVSGINSDGRNTYYADSVKGRFTISQDNAKNTVYLQMNSLKPEDTAMYYCAAGSWYNQWGYSMDYWGQGTQVTVSS
B6: NCI-CoV-1H8 (VHH)
VHH: QVQLVESGGGLVQPGGSLRLSCAASGFTFSSYDMTWVRQAPGKGLEWVAAIYTADGSTYLDDSVKGRFTISQDNAKKTLYLQMTSLKVEDTAKYTCATGVGGSFSNWGRGTQVTVSS
B7: NCI-CoV-2A10 (VHH)
VHH: QVQLVESGGGSVQAGGSLRLSCAMSGLRVSNRCMGWFRQAPGKEREGVATICIGDGSTAYADSVKGRFTISQDNAKTTVFLEMNSLKPEDTAMYSCARAVRATAATLDPGNFFYWGQGTQVTVSS
B8: NCI-CoV-2B3 (VHH)
VHH: DVQLVESGGSSVQAGGSLRLSCAASGDSYRGNLMGWFRQAPGKAREGVAVIFTPNHNTYAADSVKGRFTISQDKAKNMVYLQMNSLKPEDTAMYYCATGWEGGLILSARAYRYWGQGTQVTVSS
B9: NCI-CoV-3E5 (VHH)
VHH: EVQLVESGGGLVQPGGSLRLSCAASGFAFSSTRMHWVRQAPGVGLEWVSFIDRTDGGIISYADSVRGRFTISRDNAKNTVYLQMDRLNAEDTAVYYCLKEGPYLDYWDAWGQGTQVTVSS
B10: 1A7 VHH-hFc (Fc fusion)
chain: QVQLVESGGGLVQPGGSLRLSCVASGFTFSSVDMSWVRQDPRKGLEWVSGINSGGGSTSYADSVKGQFTISRDNAKNTLYLEMNNLKPEDTAVYYCATGLAASGVWGQGTQVTVSS
notes: also called NCI-CoV-1A7 VHH-hFc fusion protein
B11: 7C4 VHH-hFc (Fc fusion)
chain: EVQLVESGGGLVQPGGSLRLSCTASGFTFSSYDMSWVRQAPGKGLEWVSGINSGGNKIYYADSVKGRFTISRDNAKNTLYLQMSSLKSEDTALYYCAIGRLYSVKGQGTQVTVSS
notes: also called NCI-CoV-7C4 VHH-hFc fusion protein
B12: 7A5 VHH-hFc (Fc fusion)
chain: B11 chain with E1A, T23A, D33Y, G50T, G54R, N56S, K57S, I58T
notes: also called NCI-CoV-7A5 VHH-hFc fusion protein
B13: 2C7 VHH-hFc (Fc fusion)
chain: EVQLVESGGGSVQTGGSLRLSCVVSGYDYSNYCVAWFRQAEGKNREGLAGINTHGAYTNYNTPAKGRFTISQDLTKNTFTLQMNSLTPEDTAIYYCAAYPEYCPRFSSSSWNNSAVWGQGTQVTVSS
notes: also called NCI-CoV-2C7 VHH-hFc fusion protein
B14: 3E8 VHH-hFc (Fc fusion)
chain: QVQLVESGGGLVQAGGSLRLSCATSGFTFSGGYMAWVRQVPGKGLEWVANSIYDGSTYYSDAVKGRFTVSQDNAENTVYLEMNSLEPEDTAMYYCAAGWNGGPWSRTNAYIYWGQGTQVTVSS
notes: also called NCI-CoV-3E8 VHH-hFc fusion protein
B15: 8A4 VHH-hFc (Fc fusion)
chain: EVQLVESGGGLVQPGESLRLSCEASGFTFSSVYMSWVRQAPGKGLEWISTIHPAGGSTYYADSMKDRFTISRDNAKNTLYLQMNSLKSEDTALYYCIIEALSGYRGPGTQVTVSS
notes: also called 8A4-hFc; NCI-CoV-8A4 VHH-hFc fusion protein
B16: 2F7 VHH-hFc (Fc fusion)
chain: QVKLEESGGGSVQSGGSLRLSCTVSRDTNTNINRCMGWFRQAPGKGLETVATINRDGTNTYYTDAVKGRFTISQDNVKNTVYLQMNNLTPEDTGTYICNAMGRGSGSRCDNWDPNYWGQGTQVTVSS
notes: also called 2F7-hFc; NCI-CoV-2F7 VHH-hFc fusion protein
B17: NCI-CoV-8A2 (VHH)
VHH: AVQLVDSGGGSVQAGGSLRLSCAASGYTYSICTMGWYRQAPGEGLEWVSGINADGSNTHYTDSVKGRFTISRDNAKKTLYLQMNSLKPEDTAIYYCAAHGTYDKYAPCGGFAGTYTYWGQGTQVTVSS
B18: NCI-CoV-7A3 (VHH)
VHH: QVQLVESGGGSVQPGGSLRLSCVVSGYTSSSRYMGWFRQVPGKGLEWVSGIKRDGTNTYYADSVKGRFTISQDNAKNTVYLQMNSLKPEDTAMYYCAAGSWYNQWGYSMDYWGKGTQVTVSS
B19: NCI-CoV-1A10 (VHH)
VHH: AVQLVDSGGGSVQAGGSLRLSCAASGFTGSNYCLGWFRQAPGKEREGVAVIERDTGGTTYPNSLEGRFTIAQDNAKNMVYLHMRNLQPEDTGTYTCAAARNGDSFGGFTFWGQGTQVTVSS
B20: NCI-CoV-8G12 (VHH)
VHH: AVQLVDSGGGSVQAGGSLRLSCAASGYTSNMNHMGWFRQAPGKGLEWVSGIYSDGSTYYGDSVKGRFTISRDNAKNMLYLQMNNLKPEDTAVYYCSGDGGGIGYNYWGQGTQVTVSS
B21: NCI-CoV-2F7 (VHH)
VHH: B16 chain
B22: NCI-CoV-1H6 (VHH)
VHH: AVQLVDSGGGSVQAGGSLNLSCVASGTTLRNGCMAWFRQVPGKEREVVAIIIRATSYTDYADSVKGRFTISQDNAKNTVYLQMKSLTPEDTATYYCAATLYRVNCAKREFDKWGQGTQVTVSS
B23: NCI-CoV-1A7 (VHH)
VHH: B10 chain
B24: NCI-CoV-7E5 (VHH)
VHH: AVQLVESGGGSVQAGGSLRLSCAASGYTYSSNYMGWFRQAPGKELEWVSGIYSDGRTYYGDSVKGRFTISRDNAKNTVYLQMNSLKPEDTAMYYCAAGSWYNQWGYSMDYWGKGTQVTVSS
B25: NCI-CoV-7C4 (VHH)
VHH: B11 chain
B26: NCI-CoV-2D4 (VHH)
VHH: EVQLVESGGGSVQAGGSLRLSCAASAVTSNTNYVGWLRQVPGKEREGVAGIYYDGGVYYDESVKGRFTISRDNAQNTVFLQMNSLKPEDTAMYYCGAGRGYRYQYGSAWYKPGQYHYWGQGTQVTVSS
B27: NCI-CoV-1B5 (VHH)
VHH: DVQLVESGGGSVQAGGSLRLSCTGSRYTYSTYCMGWFRQAPGKEEEAVAIINSGGGEPYYGDSVKGRFTISQDRAKNTVYLQMDGLQPDDTAIYYCVAADSHNSRCYLGRSYVNYWGQGTQVTVSS
B28: NCI-CoV-8E1 (VHH)
VHH: EVQLVESGGGSVQAGGSLRLSCAASGFTFSSYYMSWVRQAPGKGLEWVSGIYSDGSTYYGDSVKGRFTISRDNAKNTLYLQMNSLKSEDTALYYCAIGTGTTRQGQGTQVTVSS
B29: NCI-CoV-1G11 (VHH)
VHH: QVQLVESGGGSVQAGGSLRLSCVASGDTNTRQYMGWFRQAPGKEREGVAVVHSDSGGTYYADSVKERFIIAQDNAKNTVYLTMNSLKVEDTAIYYCAAKTLEKPHFSVFSAASYDYWGQGTQVTVSS

Target: SARS-CoV-2 RBD (SARS-CoV-2, UniProt P0DTC2 319-541)
Assay: monoclonal VHH phage clone binding screen (FIG. 3A)

Binder	binding result
B1	binds
B2	binds
B3	binds
B4	binds
B5	binds
B6	binds
B7	binds
B8	binds
B9	binds

Target: SARS-CoV-2 spike on pseudovirus (SARS-CoV-2, UniProt P0DTC2 14-1273)
Assay: cell-based or functional assay

Binder	IC50, SARS-CoV-2 spike pseudovirus neutralization, repeated assay (FIGS. 9A-9F)
B10	0.428 µM
B11	4.29 µM
B12	3.43 µM
B13	5.79 µM
B14	1.17 µM

Target: T1, SARS-CoV S1 (SARS-CoV, UniProt P59594 14-667)
T1 construct: domain: S1; also called SARS-CoV S1 protein
Assay: ELISA, 1 µg/ml coated antigen, 1 µg/ml VHH-hFc

Binder	binding result
B15	binds
B16	no binding (tested: 1 µg/ml)
B11	binds
B12	binds
B14	binds

Target: T2, SARS-CoV-2 S trimer (SARS-CoV-2, UniProt P0DTC2 16-1213)
T2 construct: also called SARS-CoV-2 S protein; S homotrimer protein
Assay: monoclonal phage ELISA, drawn table of OD450 values

Binder	OD450
B17	0.61
B18	0.59
B19	0.63
B20	0.6
B21	0.8
B22	0.72
B23	0.67
B24	0.6
B25	0.76
B26	0.58
B27	0.67
B28	0.58

Target: T3, SARS-CoV-2 S1
T3 construct: also called S1 subunit of the SARS-CoV-2 spike protein
Assay: as above

Binder	OD450
B29	0.68
B18	0.54
B19	0.84
B20	0.62
B22	0.82
B5	0.88
B25	0.52
B28	0.51

Target: T4, BSA (UniProt P02769 25-607)
T4 construct: also called control protein
T4 sequence (P02769 25-607 limits assumed): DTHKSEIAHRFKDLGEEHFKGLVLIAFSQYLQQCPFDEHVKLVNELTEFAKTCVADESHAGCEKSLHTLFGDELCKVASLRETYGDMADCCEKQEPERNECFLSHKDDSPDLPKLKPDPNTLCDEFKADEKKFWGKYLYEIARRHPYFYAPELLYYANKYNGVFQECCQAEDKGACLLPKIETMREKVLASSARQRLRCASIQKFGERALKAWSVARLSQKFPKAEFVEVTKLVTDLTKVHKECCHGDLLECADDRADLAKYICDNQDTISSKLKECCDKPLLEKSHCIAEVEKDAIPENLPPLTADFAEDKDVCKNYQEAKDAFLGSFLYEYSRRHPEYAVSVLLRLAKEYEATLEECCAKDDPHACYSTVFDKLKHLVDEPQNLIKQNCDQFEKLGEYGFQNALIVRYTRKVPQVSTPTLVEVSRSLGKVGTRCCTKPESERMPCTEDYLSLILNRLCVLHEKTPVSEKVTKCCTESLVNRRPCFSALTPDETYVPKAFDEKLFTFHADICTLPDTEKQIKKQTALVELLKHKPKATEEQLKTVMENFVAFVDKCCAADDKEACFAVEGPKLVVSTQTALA
Assay: ELISA, 1 µg/ml coated BSA, 1 µg/ml VHH-hFc

Binder	binding result
B15	no binding (tested: 1 µg/ml)
B16	no binding (tested: 1 µg/ml)
B10	no binding (tested: 1 µg/ml)
B11	no binding (tested: 1 µg/ml)
B12	binds
B13	no binding (tested: 1 µg/ml)
B14	no binding (tested: 1 µg/ml)
